Columns and labels:
[1] = molecular target: T1, STREP-TACTIN M2 covalently coupled to Sephadex G50 stationary phase (Streptomyces avidinii, UniProt P22629 38-163, covalently coupled to cyanogen bromide (CNBr) activated Sephadex G50 resin); assay: loading of tagged Fab onto Strep-Tactin Sephadex G50 resin
T1 construct: Here it is immobilised on the chromatography matrix; also called immobilized Strep-Tactin reagent; selection reagent
Description: A 50% suspension of Sephadex G50 contained approximately 70 μg of covalently coupled 7 Strep-Tactin®/mL of the bead suspension. […] The suspension was then filled in a plastic minicolumn with a 90 micrometer frit at the bottom. The column was equilibrated with PBS (phosphate buffered saline) containing 0.5% bovine serum albumin (PBSA buffer) to give a bed volume of 1 mL.

[2] = molecular target: T2, CD4 on the surface of T cells from a human donor apheresis sample (human, UniProt P01730 26-458); assay: column affinity selection of T cells from a human apheresis sample
T2 construct: whole, on cells; also called selection marker
Description: The column was equilibrated with PBS (phosphate buffered saline) containing 0.5% bovine serum albumin (PBSA buffer) to give a bed volume of 1 mL.
As a control, an apheresis sample was loaded onto the anti-CD3 affinity column but without incubation in the presence of the anti-CD3/anti-CD28 oligomeric stimulatory reagent.

B1: anti-CD4 binding Fab fragment obtained from m13B8.2, heavy chain carboxy-terminally fused with a Twin Strep-Tag (Fab, V domains shown)
VH: QVQLKQSGPGLVQPSQSLSITCTVSGFSLTTFGVHWVRQSPGKGLEWLGVIWASGITDYNVPFMSRLSITKDNSKSQVFFKLNSLQPDDTAIYYCAKNDPGTGFAYWGQGTLVTVSA
VL: DIQMTQSPASLSASVGETVTFTCRASEMIYSYLAWYQQKQGKSPQLLVHDAKTLAEGVPSRFSGGGSGTQFSLKINTLQPEDFGTYYCQAHYGNPPTFGGGTKLEIKR
notes: also called anti-CD4 Fab
binding result [1]: binds | binding result [2]: binds
